Measurements from patent US12329823B2 (The Scripps Research Institute, priority 2021, dated 2025).
Several values for one entry are separate records, joined by “and”; a condition that tells them apart may be missing. Identical values can stand only once. Like-named read-outs stand apart in the source and are kept apart here. Numbered stars: 1 amine (or outer) side, 2 acyl side, 3 side chain; on linkers, the order of the positions; unused ones are H or OH. Bridge positions count the residues as written; N and C are the ends. Square brackets hold non-standard residues; d marks the D form. Peptide text beside a SMILES is read from it. X2 = O=C(O)CCCCCCCCCCCCCCCCCCC(=O)N[C@@H](CCCCNC(=O)CCOCCOCCNC(=O)CCOCCOCCNC(=O)CCC(=O)N(CCNC(=O)C[*:1])CCNC(=O)C[*:2])C(=O)O; Aib = CC(C)(N)C(=O)O

Experiments:
human GIPR = molecular target: T1, human GIPR (Homo sapiens, UniProt P48546); experiment: In vitro receptor activation reporter assay (CRE-Luc, HEK293-GIPR-CRE cells; receptor-mediated cAMP synthesis); format: cell-based; settings: unnumbered table
T1 construct: expressed in transfected cells; host or cells: HEK293 (CRE-HEK293, HEK293-GIPR-CRE)
T1 sequence (P48546 22-466): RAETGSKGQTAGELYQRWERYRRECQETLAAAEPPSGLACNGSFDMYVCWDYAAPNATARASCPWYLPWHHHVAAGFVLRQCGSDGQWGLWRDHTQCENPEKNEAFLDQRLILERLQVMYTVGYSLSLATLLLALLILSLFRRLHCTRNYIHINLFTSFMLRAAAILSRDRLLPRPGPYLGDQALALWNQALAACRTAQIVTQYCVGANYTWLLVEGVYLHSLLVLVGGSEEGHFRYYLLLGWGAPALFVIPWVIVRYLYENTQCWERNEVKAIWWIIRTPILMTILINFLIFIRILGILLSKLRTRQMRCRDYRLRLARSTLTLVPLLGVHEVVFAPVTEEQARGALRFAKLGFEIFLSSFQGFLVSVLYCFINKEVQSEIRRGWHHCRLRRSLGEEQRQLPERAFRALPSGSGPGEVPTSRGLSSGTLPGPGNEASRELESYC

[1] = Pharmacokinetics in CD-1 mouse, I.V. or S.C. 1 mg/kg, plasma concentration by LC-MS; settings: individual animals; for AUC(0-inf): AUCINF_pred; for MRT inf / MRT last: mouse, in vivo; for MRT inf: MRTINF_pred; for MRT last: MRTlast;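 for all read-outs here: peptide levels in plasma quantified by LC-MS across multiple sampling times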
Method: The peptide plasma concentration at various time points was determined using LC-MS.

[2] = average of runs, read-out: EC50 GIPR average
[3] = Table 15, I.V. 1 mg/kg, 1 mg/kg
[4] = iv, 1 mg/kg, Table 15, I.V. 1 mg/kg

CC[C@H](C)[C@H](NC(=O)[C@H](CC(C)C)NC(=O)[C@H](Cc1c[nH]c2ccccc12)NC(=O)[C@H](CC(N)=O)NC(=O)[C@@H](NC(=O)[C@H](Cc1ccccc1)NC(=O)[C@@H]1CSCC(=O)NCCN(C(=O)CCC(=O)NCCOCCOCCC(=O)NCCOCCOCCC(=O)NCCCC[C@H](NC(=O)CCCCCCCCCCCCCCCCCCC(=O)O)C(=O)O)CCNC(=O)CSC[C@H](NC(=O)[C@H](Cc2ccc(O)cc2)NC(=O)[C@@H](NC(=O)[C@H](CO)NC(=O)[C@H](Cc2ccc(O)cc2)NC(=O)[C@H](CC(=O)O)NC(=O)[C@H](CO)NC(=O)[C@@H](NC(=O)[C@H](Cc2ccc(O)cc2)NC(=O)[C@@H](NC(=O)CNC(=O)[C@H](CCC(=O)O)NC(=O)C(C)(C)NC(=O)[C@@H](N)Cc2ccc(O)cc2)[C@@H](C)O)[C@@H](C)O)[C@@H](C)CC)C(=O)N[C@@H](CC(=O)O)C(=O)N[C@@H](CCCCN)C(=O)N[C@@H](CCC(N)=O)C(=O)N[C@@H](C)C(=O)N[C@@H](C)C(=O)NC(C)(C)C(=O)N1)C(C)C)C(=O)N[C@@H](C)C(=O)NCC(=O)NCC(=O)N1CCC[C@H]1C(=O)N[C@@H](CO)C(=O)N[C@@H](CO)C(=O)NCC(=O)N[C@@H](C)C(=O)N1CCC[C@H]1C(=O)N1CCC[C@H]1C(=O)N1CCC[C@H]1C(=O)N[C@@H](CO)C(N)=O [6Y, 27I, C(14-21)-C20L5A, YAibEGT-YTSDY-SIYXD-KQAAAib-XFVNW-LIAGG-PSSGA-PPPS-NH2 (where each X is C) (SEQ ID NO: 58)] (H-Y[Aib]EGTYTSDYSIYCDKQAA[Aib]CFVNWLIAGGPSSGAPPPS-NH2; linker 14-21 via X2)
EC50 (human GIPR; [2]): 0.56 nM | EC50 (human GIPR; run 03/26, read-out: EC50 GIPR 03/26): 0.6 nM

CC[C@H](C)[C@H](NC(=O)[C@H](CC(C)C)NC(=O)[C@H](Cc1c[nH]c2ccccc12)NC(=O)[C@@H]1CSCC(=O)NCCN(C(=O)CCC(=O)NCCOCCOCCC(=O)NCCOCCOCCC(=O)NCCCC[C@H](NC(=O)CCCCCCCCCCCCCCCCCCC(=O)O)C(=O)O)CCNC(=O)CSC[C@H](NC(=O)[C@H](CCCCN)NC(=O)[C@H](CC(=O)O)NC(=O)[C@H](CC(C)C)NC(=O)[C@H](Cc2ccc(O)cc2)NC(=O)[C@@H](NC(=O)[C@H](CO)NC(=O)[C@H](Cc2ccc(O)cc2)NC(=O)[C@H](CC(=O)O)NC(=O)[C@H](CO)NC(=O)[C@@H](NC(=O)[C@H](Cc2ccc(O)cc2)NC(=O)[C@@H](NC(=O)CNC(=O)[C@H](CCC(=O)O)NC(=O)C(C)(C)NC(=O)[C@@H](N)Cc2ccc(O)cc2)[C@@H](C)O)[C@@H](C)O)[C@@H](C)CC)C(=O)N[C@@H](C)C(=O)N[C@@H](C)C(=O)NC(C)(C)C(=O)N[C@@H](CCC(=O)O)C(=O)N[C@@H](Cc2ccccc2)C(=O)N[C@@H](C(C)C)C(=O)N1)C(=O)N[C@@H](C)C(=O)NCC(=O)NCC(=O)N1CCC[C@H]1C(=O)N[C@@H](CO)C(=O)N[C@@H](CO)C(=O)NCC(=O)N[C@@H](C)C(=O)N1CCC[C@H]1C(=O)N1CCC[C@H]1C(=O)N1CCC[C@H]1C(=O)N[C@@H](CO)C(N)=O [6Y, 27I, C(17-24)-C20L5A, YAibEGT-YTSDY-SIYLD-KXAAAib-EFVXW-LIAGG-PSSGA-PPPS-NH2 (where each X is C) (SEQ ID NO: 59)] (H-Y[Aib]EGTYTSDYSIYLDKCAA[Aib]EFVCWLIAGGPSSGAPPPS-NH2; linker 17-24 via X2)
EC50 (human GIPR; [2]): 0.26 nM

CC[C@H](C)[C@H](NC(=O)[C@H](CC(C)C)NC(=O)[C@H](Cc1c[nH]c2ccccc12)NC(=O)[C@H](CC(N)=O)NC(=O)[C@@H](NC(=O)[C@H](Cc1ccccc1)NC(=O)[C@@H]1CSCC(=O)NCCN(C(=O)CCC(=O)NCCOCCOCCC(=O)NCCOCCOCCC(=O)NCCCC[C@H](NC(=O)CCCCCCCCCCCCCCCCC(=O)O)C(=O)O)CCNC(=O)CSC[C@H](NC(=O)[C@H](Cc2ccc(O)cc2)NC(=O)[C@@H](NC(=O)[C@H](CO)NC(=O)[C@H](Cc2ccc(O)cc2)NC(=O)[C@H](CC(=O)O)NC(=O)[C@H](CO)NC(=O)[C@@H](NC(=O)[C@H](Cc2ccccc2)NC(=O)[C@@H](NC(=O)CNC(=O)[C@H](CCC(=O)O)NC(=O)C(C)(C)NC(=O)[C@@H](N)Cc2ccc(O)cc2)[C@@H](C)O)[C@@H](C)O)[C@@H](C)CC)C(=O)N[C@@H](CC(=O)O)C(=O)N[C@@H](CCCCN)C(=O)N[C@@H](CCC(N)=O)C(=O)N[C@@H](C)C(=O)N[C@@H](C)C(=O)NC(C)(C)C(=O)N1)C(C)C)C(=O)N[C@@H](C)C(=O)NCC(=O)NCC(=O)N1CCC[C@H]1C(=O)N[C@@H](CO)C(=O)N[C@@H](CO)C(=O)NCC(=O)N[C@@H](C)C(=O)N1CCC[C@H]1C(=O)N1CCC[C@H]1C(=O)N1CCC[C@H]1C(=O)N[C@@H](CO)C(N)=O [mCMZ370, YAibEGT-FTSDY-SIYXD-KQAAAib-XFVNW-LIAGG-PSSGA-PPPS-NH2 (where each X is C) (SEQ ID NO: 52)]
AUC ([1]; CD-1, mouse, plasma, iv, 1 mg/kg, AUC0_24, Table 15, I.V. 1 mg/kg): 121000 ng·h/mL | AUC(0-t) ([1]; CD-1, mouse, plasma, iv, 1 mg/kg, AUC last, Table 15, I.V. 1 mg/kg): 148000 ng·h/mL | AUC(0-inf) ([1]; CD-1, mouse, plasma, iv, 1 mg/kg, Table 15, I.V. 1 mg/kg): 149000 ng·h/mL | C0 ([1]; CD-1, mouse, plasma, iv, 1 mg/kg, C0, Table 15, I.V. 1 mg/kg): 15200 ng/mL | Cmax ([1]; CD-1, mouse, plasma, iv, 1 mg/kg, Cmax, Table 15, I.V. 1 mg/kg): 14600 ng/mL | Tmax ([1]; CD-1, mouse, plasma, iv, 1 mg/kg, Tmax, Table 15, I.V. 1 mg/kg): 0.08 h | Vd ([1]; CD-1, mouse, plasma, iv, 1 mg/kg, Vss_pred, Table 15, I.V. 1 mg/kg): 0.098 L/kg | Vd ([1]; CD-1, mouse, plasma, iv, 1 mg/kg, Vz_pred, Table 15, I.V. 1 mg/kg): 0.085 L/kg | half-life ([1]; CD-1, mouse, plasma, iv, 1 mg/kg, t1/2, Table 15, I.V. 1 mg/kg): 8.82 h | AUC ([1]; CD-1, mouse, plasma, sc, 1 mg/kg, AUC0_24, CD-1 mouse, S.C.): 41900 ng·h/mL | AUC(0-inf) ([1]; CD-1, mouse, plasma, sc, 1 mg/kg, S.C.): 53500 ng·h/mL | AUC ([1]; CD-1, mouse, plasma, sc, 1 mg/kg, AUCall, S.C.): 53300 ng·h/mL | CL/F ([1]; CD-1, mouse, plasma, sc, 1 mg/kg, Cl_Fpred, S.C.): 0.24 mL/min/kg | Cmax ([1]; CD-1, mouse, plasma, sc, 1 mg/kg, Cmax, S.C.): 2460 ng/mL | half-life ([1]; CD-1, mouse, plasma, sc, 1 mg/kg, t1/2, CD-1 mouse, S.C.): 7.5 h | AUC0_24 ([1]; CD-1 mouse, S.C., 1 mg/kg): 44691 ng·h/mL and 63474 ng·h/mL | AUCINF_pred ([1]; CD-1 mouse, S.C., 1 mg/kg): 68240 ng·h/mL and 80676 ng·h/mL | AUC_% Extrap_pred ([1]; CD-1 mouse, S.C., 1 mg/kg): 0.26% and 0.31% and 0.19% | AUCall ([1]; CD-1 mouse, S.C., 1 mg/kg): 68029 ng·h/mL and 80522 ng·h/mL | AUMC_% Extrap_pred ([1]; CD-1 mouse, S.C., 1 mg/kg): 1.32% and 1.23% and 0.99% | Cl_Fpred ([1]; CD-1 mouse, S.C., 1 mg/kg): 0.06 mL/min/kg | Cmax ([1]; CD-1 mouse, S.C., 1 mg/kg): 2221 ng/mL and 3993 ng/mL | MRTINF_pred ([1]; CD-1 mouse, S.C., 1 mg/kg): 20.64 h and 15.82 h | MRTlast ([1]; CD-1 mouse, S.C., 1 mg/kg): 20.45 h and 15.69 h | Tlast ([1]; CD-1 mouse, S.C., 1 mg/kg): 72 h | Tmax ([1]; CD-1 mouse, S.C., 1 mg/kg): 7 h and 24 h and 3 h | V_F_pred ([1]; CD-1 mouse, S.C., 1 mg/kg): 0.2 L/kg and 0.15 L/kg and 0.13 L/kg | t1/2 ([1]; CD-1 mouse, S.C., 1 mg/kg): 7.06 h and 7.05 h | Tlast ([1]; Table 15, I.V. 1 mg/kg): 72 h | AUC0_24 [1, 3]: 107856 ng·h/mL and 85158 ng·h/mL | AUC last [1, 3]: 127615 ng·h/mL and 102411 ng·h/mL | AUCINF_pred [1, 3]: 128099 ng·h/mL and 103033 ng·h/mL | AUC_% Extrap_pred [1, 3]: 0.39% and 0.38% and 0.6% | AUMC_% Extrap_pred [1, 3]: 2.24% and 2.36% and 3.79% | C0 [1, 3]: 8380 ng/mL and 10006 ng/mL | Cmax [1, 3]: 8230 ng/mL and 9829 ng/mL | MRTINF_pred [1, 3]: 13.56 h and 13.74 h | MRTlast [1, 3]: 13.29 h and 13.3 h | Vss_pred [1, 3]: 0.106 L/kg and 0.133 L/kg | Vz_pred [1, 3]: 0.099 L/kg and 0.138 L/kg | t1/2 [1, 3]: 9.87 h | MRT inf [1, 4]: 14.6 h | MRT last [1, 4]: 14.3 h | MRT inf ([1]; sc, 1 mg/kg, CD-1 mouse, S.C.): 16.2 h | MRT last ([1]; sc, 1 mg/kg, CD-1 mouse, S.C.): 16.1 h
